# Laboratory results taken from the Human Domainome abundance scans (Beltran et al. 2025).
# ± gives the uncertainty stated by the source.
# Assay: abundance fitness (aPCA) (normalised: wild type 0, dead -1); higher = more abundant; growth selection in yeast, the domain comes from the species named
# Conditions: Homo sapiens
row,Substance,abundance fitness
1,"Scaffold attachment factor B2 V35M, Q14151",-0.236 ± 0.12
2,"Scaffold attachment factor B2 S54L, Q14151",-0.167 ± 0.1
3,"Scaffold attachment factor B2 G50D, Q14151",-0.171 ± 0.12
4,"Scaffold attachment factor B2 L42F, Q14151",-0.994 ± 0.16
5,"Scaffold attachment factor B2 T27C, Q14151",-0.112 ± 0.11
6,"Scaffold attachment factor B2 N46E, Q14151",-0.131 ± 0.092
7,"Scaffold attachment factor B2 D37W, Q14151",-0.495 ± 0.086
8,"Tyrosine-protein kinase Lck F110Y, P06239",0.001 ± 0.19
9,"Scaffold attachment factor B2 K44Q, Q14151",-0.1 ± 0.18
10,"Scaffold attachment factor B2 T27I, Q14151",-0.136 ± 0.19
11,"Scaffold attachment factor B2 T49P, Q14151",-0.349 ± 0.084
12,"Scaffold attachment factor B2 D48C, Q14151",-0.188 ± 0.11
13,"Scaffold attachment factor B2 L38K, Q14151",-0.694 ± 0.12
14,"Scaffold attachment factor B2 T49A, Q14151",-0.181 ± 0.089
15,"Scaffold attachment factor B2 E41W, Q14151",-1.02 ± 0.23
16,"Scaffold attachment factor B2 R45F, Q14151",-0.784 ± 0.21
17,"Scaffold attachment factor B2 K61V, Q14151",-0.094 ± 0.095
18,"Scaffold attachment factor B2 R45K, Q14151",-0.374 ± 0.12
19,"Scaffold attachment factor B2 G68M, Q14151",-0.33 ± 0.12
20,"Scaffold attachment factor B2 I36L, Q14151",-0.103 ± 0.087
21,"Scaffold attachment factor B2 K65H, Q14151",0.463 ± 0.23
22,"Scaffold attachment factor B2 E58Q, Q14151",-0.319 ± 0.11

row,Substance,abundance fitness
1,"Scaffold attachment factor B2 R29G, Q14151",-0.127 ± 0.074
2,"Scaffold attachment factor B2 L30I, Q14151",0.038 ± 0.14
3,"Scaffold attachment factor B2 S31L, Q14151",-0.312 ± 0.1
4,"Scaffold attachment factor B2 E67A, Q14151",-0.23 ± 0.12
5,"Scaffold attachment factor B2 E58L, Q14151",-0.439 ± 0.077
6,"Scaffold attachment factor B2 K65R, Q14151",-0.136 ± 0.099
7,"Scaffold attachment factor B2 L42T, Q14151",-0.44 ± 0.12
8,"Scaffold attachment factor B2 N52D, Q14151",0.11 ± 0.13
9,"Scaffold attachment factor B2 K61S, Q14151",-0.359 ± 0.091
10,"Scaffold attachment factor B2 K44Y, Q14151",-0.494 ± 0.15
11,"Scaffold attachment factor B2 L47E, Q14151",-0.394 ± 0.098
12,"Scaffold attachment factor B2 G68E, Q14151",0.166 ± 0.095
13,"Scaffold attachment factor B2 T27A, Q14151",-0.164 ± 0.1
14,"Scaffold attachment factor B2 E67T, Q14151",-0.381 ± 0.1
15,"Scaffold attachment factor B2 L38M, Q14151",-0.139 ± 0.12
16,"Scaffold attachment factor B2 T27Q, Q14151",-0.076 ± 0.19
17,"Scaffold attachment factor B2 N46Y, Q14151",-0.484 ± 0.11
18,"Scaffold attachment factor B2 R45M, Q14151",-0.66 ± 0.29
19,"Scaffold attachment factor B2 K43F, Q14151",-0.601 ± 0.15
20,"Scaffold attachment factor B2 K44E, Q14151",-0.219 ± 0.091
21,"Scaffold attachment factor B2 R28E, Q14151",0.088 ± 0.1
22,"Scaffold attachment factor B2 R29N, Q14151",-0.016 ± 0.11

row,Substance,abundance fitness
1,"Scaffold attachment factor B2 V35L, Q14151",-0.353 ± 0.078
2,"Scaffold attachment factor B2 D70F, Q14151",-0.431 ± 0.15
3,"Scaffold attachment factor B2 L33C, Q14151",-0.758 ± 0.12
4,"Scaffold attachment factor B2 E66C, Q14151",-0.157 ± 0.13
5,"Scaffold attachment factor B2 N46S, Q14151",-0.135 ± 0.088
6,"Scaffold attachment factor B2 N52H, Q14151",-0.719 ± 0.14
7,"Scaffold attachment factor B2 L38D, Q14151",-0.746 ± 0.11
8,"Scaffold attachment factor B2 Q69I, Q14151",-0.262 ± 0.11
9,"Scaffold attachment factor B2 L33V, Q14151",-0.204 ± 0.072
10,"Scaffold attachment factor B2 L56P, Q14151",-0.319 ± 0.13
11,"Tyrosine-protein kinase Lck D77E, P06239",-0.02 ± 0.13
12,"Scaffold attachment factor B2 T49K, Q14151",-0.788 ± 0.16
13,"Scaffold attachment factor B2 R34M, Q14151",-0.31 ± 0.1
14,"Scaffold attachment factor B2 A63F, Q14151",-0.628 ± 0.18
15,"Scaffold attachment factor B2 L30K, Q14151",-0.461 ± 0.12
16,"Scaffold attachment factor B2 T49D, Q14151",-0.472 ± 0.13
17,"Scaffold attachment factor B2 G51W, Q14151",-1.41 ± 0.1
18,"Scaffold attachment factor B2 S54M, Q14151",-0.15 ± 0.2
19,"Scaffold attachment factor B2 E32T, Q14151",-0.07 ± 0.13
20,"Scaffold attachment factor B2 L42N, Q14151",-0.606 ± 0.12
21,"Scaffold attachment factor B2 L38R, Q14151",-0.787 ± 0.076
22,"Scaffold attachment factor B2 D48T, Q14151",-0.526 ± 0.083

row,Substance,abundance fitness
1,"Scaffold attachment factor B2 V64E, Q14151",-0.109 ± 0.098
2,"Scaffold attachment factor B2 T49Q, Q14151",-0.286 ± 0.11
3,"Scaffold attachment factor B2 D37H, Q14151",-0.865 ± 0.16
4,"Scaffold attachment factor B2 R59H, Q14151",-0.474 ± 0.22
5,"Scaffold attachment factor B2 L30F, Q14151",-0.3 ± 0.12
6,"Scaffold attachment factor B2 E32Q, Q14151",-0.135 ± 0.087
7,"Scaffold attachment factor B2 G68V, Q14151",-0.169 ± 0.092
8,"Scaffold attachment factor B2 S54W, Q14151",-0.261 ± 0.18
9,"Scaffold attachment factor B2 K61N, Q14151",-0.002 ± 0.095
10,"Scaffold attachment factor B2 T27E, Q14151",0.08 ± 0.21
11,"Scaffold attachment factor B2 T27W, Q14151",-0.514 ± 0.13
12,"Scaffold attachment factor B2 N46K, Q14151",-0.214 ± 0.088
13,"Scaffold attachment factor B2 L42Q, Q14151",-0.827 ± 0.29
14,"Scaffold attachment factor B2 M57S, Q14151",-0.49 ± 0.088
15,"Scaffold attachment factor B2 K65P, Q14151",-0.054 ± 0.18
16,"Scaffold attachment factor B2 K62H, Q14151",-0.083 ± 0.15
17,"Scaffold attachment factor B2 I36E, Q14151",0.157 ± 0.13
18,"Scaffold attachment factor B2 R29W, Q14151",-0.246 ± 0.083
19,"Scaffold attachment factor B2 K43R, Q14151",-0.104 ± 0.076
20,"Scaffold attachment factor B2 A63G, Q14151",-0.324 ± 0.083
21,"Scaffold attachment factor B2 S54Y, Q14151",-0.358 ± 0.27
22,"Scaffold attachment factor B2 L60V, Q14151",-0.361 ± 0.09

row,Substance,abundance fitness
1,"Scaffold attachment factor B2 L42W, Q14151",-1.1 ± 0.083
2,"Tyrosine-protein kinase Lck E96D, P06239",0.069 ± 0.16
3,"Scaffold attachment factor B2 E32F, Q14151",-0.873 ± 0.27
4,"Scaffold attachment factor B2 L56D, Q14151",-0.349 ± 0.13
5,"Scaffold attachment factor B2 E58K, Q14151",-0.44 ± 0.17
6,"Scaffold attachment factor B2 I36D, Q14151",0.206 ± 0.18
7,"Scaffold attachment factor B2 K61P, Q14151",-0.203 ± 0.13
8,"Scaffold attachment factor B2 D70V, Q14151",-0.283 ± 0.14
9,"Scaffold attachment factor B2 E66H, Q14151",-0.214 ± 0.11
10,"Scaffold attachment factor B2 L56H, Q14151",-0.296 ± 0.094
11,"Scaffold attachment factor B2 E58P, Q14151",-0.612 ± 0.09
12,"Scaffold attachment factor B2 R45D, Q14151",-0.52 ± 0.13
13,"Scaffold attachment factor B2 L56Q, Q14151",-0.378 ± 0.28
14,"Scaffold attachment factor B2 R59W, Q14151",-1.25 ± 0.15
15,"Scaffold attachment factor B2 Q69V, Q14151",-0.175 ± 0.11
16,"Scaffold attachment factor B2 K62V, Q14151",-0.163 ± 0.1
17,"Scaffold attachment factor B2 T27K, Q14151",-0.658 ± 0.16
18,"Tyrosine-protein kinase Lck G78D, P06239",-0.088 ± 0.099
19,"Scaffold attachment factor B2 V35S, Q14151",-0.184 ± 0.089
20,"Scaffold attachment factor B2 N52P, Q14151",-0.074 ± 0.088
21,"Scaffold attachment factor B2 E66F, Q14151",-0.417 ± 0.13
22,"Scaffold attachment factor B2 K65I, Q14151",-0.241 ± 0.14
